Target: T1, IL-6 receptor (Rattus norvegicus, UniProt P22273)
T1 construct: V6 (so in the source); probably V5); host or cells: F11 cells (lysate)
T1 sequence (P22273 20-462): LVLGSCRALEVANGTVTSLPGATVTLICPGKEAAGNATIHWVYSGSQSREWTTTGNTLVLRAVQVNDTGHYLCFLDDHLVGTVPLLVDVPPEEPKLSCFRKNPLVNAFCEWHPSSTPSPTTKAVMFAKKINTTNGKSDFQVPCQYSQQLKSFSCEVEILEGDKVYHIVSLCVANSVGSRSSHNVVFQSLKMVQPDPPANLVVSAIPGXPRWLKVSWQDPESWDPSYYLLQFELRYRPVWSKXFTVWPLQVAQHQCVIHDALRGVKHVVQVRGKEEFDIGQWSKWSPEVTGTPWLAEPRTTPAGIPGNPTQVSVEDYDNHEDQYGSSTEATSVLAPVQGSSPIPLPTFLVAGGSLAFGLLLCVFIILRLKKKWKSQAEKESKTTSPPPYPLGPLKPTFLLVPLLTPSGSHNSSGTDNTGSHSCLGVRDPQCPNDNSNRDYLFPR
Assay: In vitro pull-down assay with HN- or HNA-conjugated Sepharose 4B
Format: binding
Details: lysates of F11 cells overexpressing IL-6R
Excerpt: C) The photos show the results of in vitro pull down assay using HN- or HNA-conjugated Sepharose 4B bead. WSX-1, CNTF-R, and […] were over-expressed in F11 cells and the pull down assay was made using the above 4B bead. Immunoblot analysis was done using PO4 antibody against Humanin (lower panes). HN or HNA comprised in the above Sepharose 4B bead was compared with synthesized HN peptide (50 pmol) as a positive control.
F11 cells (7×10^4/well in 6-well plates) were transfected with the plasmids encoding mycHis-WSX-1, V5-CNTF-R or rat IL-6R (V6 tagged). At 48 hrs after transfection, the cells were harvested for pull-down assays with HN or HNA-conjugated Sepharose 4B. For conjugation of […] or HNA with Sepharose 4B, 3 ml of CNBr-activated Sepharose 4B was incubated with 0.5 mg of HN or HNA in a coupling buffer (0.1M NaHCO3 0.5M NaCl, pH8.3) overnight at 4° C. The beads were then reacted with a blocking buffer (0.2M glycine, pH 8.0) for 2 hrs at a room temperature, washed with the coupling buffer and stored at 4° C. for use in pull-down assay. For each pull-down assay, 20 μl of 1:1 slurry of Sepharose was used for 100 μl of the cell lysate.

binding in pull-down to IL-6 receptor: did not bind
Substance: C8A-Humanin (MAPRGFSALLLLTSEIDLPVKRRA) [HNA]

— US8173771B2, “Humanin receptor or humanin-like polypeptide receptor” (Keio Univeristy, priority 2005, dated 2012)
